Measured values reported in paper PMC11969024 (2025).

B1: peptide HD2 (from tick evasin EVA4) / CCL18 (biotinylated, synthetic) (parent complex)
chain 1: EEDDYTAYAPLTCYFT
chain 2: AQVGTNKELCCLVYTSWQIPQKFIVDYSETSPQCPKPGVILLTKRGRQICADPNKKWVQKYISDLKLNA
B2: peptide HD2 (from tick evasin EVA4) / CCL8 (biotinylated, synthetic) (parent complex)
chain 1: EEDDYTAYAPLTCYFT
chain 2: QPDSVSIPITCCFNVINRKIPIQRLESYTRITNIQCPKEAVIFKTKRGKEVCADPKERWVRDSMKHLDQIFQNLKP

Variants of: B1
chain 1 T6G was tested, and the enrichment was 2.9 log2 (difference from the parental peptide). For chain 1 T6Q, the enrichment was 1.41 log2 (difference from the parental peptide). In the case of chain 1 T6D, the enrichment is reported as 2.62 log2 (difference from the parental peptide). chain 1 T6H was tested, and the enrichment was 0.0995 log2 (difference from the parental peptide). In the case of chain 1 T6L, the enrichment is reported as -1.51 log2 (difference from the parental peptide). chain 1 T6P was tested, and the enrichment was -2.2 log2 (difference from the parental peptide). chain 1 F15I was tested, and the enrichment was 0.366 log2 (difference from the parental peptide). chain 1 F15Y was tested, and the enrichment was 1.67 log2 (difference from the parental peptide). chain 1 F15V was tested, and the enrichment was 1.03 log2 (difference from the parental peptide). With chain 1 F15H the enrichment was 0.242 log2 (difference from the parental peptide). For chain 1 F15N, the enrichment was -2.68 log2 (difference from the parental peptide). In the case of chain 1 F15R, the enrichment is reported as -0.00139 log2 (difference from the parental peptide). With chain 1 F15T the enrichment was 0.316 log2 (difference from the parental peptide). In the case of chain 1 Y14I, the enrichment is reported as -0.627 log2 (difference from the parental peptide). With chain 1 Y14R the enrichment was -6.83 log2 (difference from the parental peptide). For chain 1 Y14A, the enrichment was -5.59 log2 (difference from the parental peptide). For chain 1 Y14L, the enrichment was -2.62 log2 (difference from the parental peptide). In the case of chain 1 Y14T, the enrichment is reported as -1.1 log2 (difference from the parental peptide). With chain 1 D4A the enrichment was -1.65 log2 (difference from the parental peptide). For chain 1 D4M, the enrichment was -1.48 log2 (difference from the parental peptide). With chain 1 D4L the enrichment was -2.06 log2 (difference from the parental peptide). For chain 1 D4H, the enrichment was -3.06 log2 (difference from the parental peptide). chain 1 D4T was tested, and the enrichment was -3.75 log2 (difference from the parental peptide). With chain 1 A7P the enrichment was 0.82 log2 (difference from the parental peptide). In the case of chain 1 A7G, the enrichment is reported as -0.215 log2 (difference from the parental peptide). For chain 1 A7F, the enrichment was -2.38 log2 (difference from the parental peptide). For chain 1 A7E, the enrichment was 2.03 log2 (difference from the parental peptide). In the case of chain 1 A7S, the enrichment is reported as 0.379 log2 (difference from the parental peptide). For chain 1 A7V, the enrichment was -1.12 log2 (difference from the parental peptide). For chain 1 T16M, the enrichment was 0.26 log2 (difference from the parental peptide). chain 1 T16P was tested, and the enrichment was 1.74 log2 (difference from the parental peptide). For chain 1 T16E, the enrichment was 1.13 log2 (difference from the parental peptide). With chain 1 T16I the enrichment was -0.207 log2 (difference from the parental peptide). With chain 1 T16Y the enrichment was -0.525 log2 (difference from the parental peptide). With chain 1 T16S the enrichment was 0.936 log2 (difference from the parental peptide). chain 1 T16V was tested, and the enrichment was 0.0426 log2 (difference from the parental peptide). For chain 1 T16W, the enrichment was -0.639 log2 (difference from the parental peptide). chain 1 T12G was tested, and the enrichment was -8.91 log2 (difference from the parental peptide). With chain 1 T12D the enrichment was -4.6 log2 (difference from the parental peptide). With chain 1 T12K the enrichment was -4.78 log2 (difference from the parental peptide). For chain 1 T12Q, the enrichment was -0.825 log2 (difference from the parental peptide). chain 1 T12H was tested, and the enrichment was -0.953 log2 (difference from the parental peptide). In the case of chain 1 C13V, the enrichment is reported as -6.58 log2 (difference from the parental peptide). In the case of chain 1 C13Y, the enrichment is reported as -5.14 log2 (difference from the parental peptide). In the case of chain 1 C13M, the enrichment is reported as -4.59 log2 (difference from the parental peptide). For chain 1 C13P, the enrichment was -7.21 log2 (difference from the parental peptide). chain 1 C13L was tested, and the enrichment was -7.42 log2 (difference from the parental peptide). For chain 1 C13W, the enrichment was -6.26 log2 (difference from the parental peptide). With chain 1 Y5E the enrichment was -1.36 log2 (difference from the parental peptide). In the case of chain 1 Y5C, the enrichment is reported as -5.9 log2 (difference from the parental peptide). chain 1 Y5P was tested, and the enrichment was -4.12 log2 (difference from the parental peptide). In the case of chain 1 Y5F, the enrichment is reported as -0.587 log2 (difference from the parental peptide). In the case of chain 1 Y5H, the enrichment is reported as -4.35 log2 (difference from the parental peptide). In the case of chain 1 Y5T, the enrichment is reported as -3.47 log2 (difference from the parental peptide). For chain 1 Y5S, the enrichment was -3.37 log2 (difference from the parental peptide). In the case of chain 1 Y5G, the enrichment is reported as -3.5 log2 (difference from the parental peptide). For chain 1 E2Q, the enrichment was -1.4 log2 (difference from the parental peptide). With chain 1 E2P the enrichment was -2.55 log2 (difference from the parental peptide). chain 1 E2L was tested, and the enrichment was -1.93 log2 (difference from the parental peptide). With chain 1 E2C the enrichment was -10.2 log2 (difference from the parental peptide). With chain 1 E2A the enrichment was -1.63 log2 (difference from the parental peptide). With chain 1 E2W the enrichment was -1.25 log2 (difference from the parental peptide). chain 1 P10Y was tested, and the enrichment was -6.76 log2 (difference from the parental peptide). chain 1 P10W was tested, and the enrichment was -5.72 log2 (difference from the parental peptide). For chain 1 L11G, the enrichment was -7.45 log2 (difference from the parental peptide). For chain 1 L11P, the enrichment was -3.17 log2 (difference from the parental peptide). chain 1 L11D was tested, and the enrichment was -8.28 log2 (difference from the parental peptide). In the case of chain 1 L11E, the enrichment is reported as -3.32 log2 (difference from the parental peptide). chain 1 E1V was tested, and the enrichment was -1.49 log2 (difference from the parental peptide). In the case of chain 1 E1T, the enrichment is reported as -0.938 log2 (difference from the parental peptide). In the case of chain 1 E1Q, the enrichment is reported as -1.1 log2 (difference from the parental peptide). For chain 1 E1F, the enrichment was -2.72 log2 (difference from the parental peptide). In the case of chain 1 E1H, the enrichment is reported as -1.83 log2 (difference from the parental peptide). chain 1 E1G was tested, and the enrichment was -0.506 log2 (difference from the parental peptide). In the case of chain 1 E1D, the enrichment is reported as 1.97 log2 (difference from the parental peptide). chain 1 E1W was tested, and the enrichment was -2.19 log2 (difference from the parental peptide). For chain 1 Y8C, the enrichment was -8.88 log2 (difference from the parental peptide). In the case of chain 1 Y8A, the enrichment is reported as 0.303 log2 (difference from the parental peptide). With chain 1 Y8T the enrichment was -4.68 log2 (difference from the parental peptide). For chain 1 Y8N, the enrichment was -8.33 log2 (difference from the parental peptide). With chain 1 Y8M the enrichment was -6.37 log2 (difference from the parental peptide). With chain 1 Y8I the enrichment was -7.58 log2 (difference from the parental peptide). In the case of chain 1 Y8W, the enrichment is reported as 0.189 log2 (difference from the parental peptide). In the case of chain 1 D3Q, the enrichment is reported as -2.18 log2 (difference from the parental peptide). In the case of chain 1 D3H, the enrichment is reported as -1.21 log2 (difference from the parental peptide). chain 1 D3K was tested, and the enrichment was -3.97 log2 (difference from the parental peptide). chain 1 D3P was tested, and the enrichment was 0.322 log2 (difference from the parental peptide). In the case of chain 1 D3V, the enrichment is reported as -2.61 log2 (difference from the parental peptide). chain 1 D3S was tested, and the enrichment was -1.57 log2 (difference from the parental peptide). With chain 1 D3Y the enrichment was -1.47 log2 (difference from the parental peptide). chain 1 D3N was tested, and the enrichment was -1.71 log2 (difference from the parental peptide). In the case of chain 1 D3T, the enrichment is reported as -2 log2 (difference from the parental peptide). For chain 1 A9W, the enrichment was -3.66 log2 (difference from the parental peptide). In the case of chain 1 A9G, the enrichment is reported as -3.53 log2 (difference from the parental peptide). With chain 1 A9S the enrichment was -1.48 log2 (difference from the parental peptide). chain 1 A9T was tested, and the enrichment was -3.35 log2 (difference from the parental peptide). With chain 1 A9R the enrichment was -1.3 log2 (difference from the parental peptide). For chain 1 A9V, the enrichment was -8.05 log2 (difference from the parental peptide).

Variants of: B2
chain 1 E1I was tested, and the enrichment was -1.02 log2 (difference from the parental peptide). chain 1 E1H was tested, and the enrichment was -1.32 log2 (difference from the parental peptide). chain 1 E1W was tested, and the enrichment was -2.25 log2 (difference from the parental peptide). chain 1 Y8L was tested, and the enrichment was -7.29 log2 (difference from the parental peptide). For chain 1 Y8R, the enrichment was -6.7 log2 (difference from the parental peptide). chain 1 Y8M was tested, and the enrichment was -6.01 log2 (difference from the parental peptide). For chain 1 T12S, the enrichment was 0.405 log2 (difference from the parental peptide). chain 1 T12K was tested, and the enrichment was -0.15 log2 (difference from the parental peptide). chain 1 T12N was tested, and the enrichment was 0.576 log2 (difference from the parental peptide). chain 1 T12R was tested, and the enrichment was 0.0146 log2 (difference from the parental peptide). chain 1 D4Y was tested, and the enrichment was -2.68 log2 (difference from the parental peptide). With chain 1 D4W the enrichment was -3.2 log2 (difference from the parental peptide). With chain 1 A7H the enrichment was -0.321 log2 (difference from the parental peptide). For chain 1 A7N, the enrichment was 1.02 log2 (difference from the parental peptide). With chain 1 A7R the enrichment was -0.287 log2 (difference from the parental peptide). chain 1 A7F was tested, and the enrichment was -0.605 log2 (difference from the parental peptide). chain 1 D3E was tested, and the enrichment was 0.904 log2 (difference from the parental peptide). With chain 1 A9T the enrichment was -0.868 log2 (difference from the parental peptide). chain 1 A9S was tested, and the enrichment was 0.31 log2 (difference from the parental peptide). For chain 1 A9M, the enrichment was -1.3 log2 (difference from the parental peptide). For chain 1 A9G, the enrichment was -0.437 log2 (difference from the parental peptide). chain 1 A9V was tested, and the enrichment was -3.26 log2 (difference from the parental peptide). For chain 1 Y14C, the enrichment was -2.25 log2 (difference from the parental peptide). For chain 1 Y14W, the enrichment was 0.518 log2 (difference from the parental peptide). With chain 1 Y14N the enrichment was 0.255 log2 (difference from the parental peptide). chain 1 Y14M was tested, and the enrichment was 1.03 log2 (difference from the parental peptide). In the case of chain 1 Y14P, the enrichment is reported as -2.37 log2 (difference from the parental peptide). chain 1 Y14I was tested, and the enrichment was 1.29 log2 (difference from the parental peptide). For chain 1 F15I, the enrichment was 1.54 log2 (difference from the parental peptide). In the case of chain 1 F15K, the enrichment is reported as 2.15 log2 (difference from the parental peptide). For chain 1 F15E, the enrichment was 1.9 log2 (difference from the parental peptide). In the case of chain 1 F15R, the enrichment is reported as 1.7 log2 (difference from the parental peptide). With chain 1 F15T the enrichment was 2.65 log2 (difference from the parental peptide). With chain 1 C13F the enrichment was -0.473 log2 (difference from the parental peptide). For chain 1 C13A, the enrichment was -2.32 log2 (difference from the parental peptide). For chain 1 C13L, the enrichment was -1.06 log2 (difference from the parental peptide). chain 1 L11K was tested, and the enrichment was 1.95 log2 (difference from the parental peptide). chain 1 P10T was tested, and the enrichment was -7.38 log2 (difference from the parental peptide). With chain 1 P10N the enrichment was -7.54 log2 (difference from the parental peptide). For chain 1 E2Q, the enrichment was -2.83 log2 (difference from the parental peptide). For chain 1 E2R, the enrichment was -3.19 log2 (difference from the parental peptide). For chain 1 Y5E, the enrichment was -1.42 log2 (difference from the parental peptide). In the case of chain 1 Y5I, the enrichment is reported as -2.45 log2 (difference from the parental peptide). In the case of chain 1 Y5W, the enrichment is reported as -0.0149 log2 (difference from the parental peptide). In the case of chain 1 T6E, the enrichment is reported as 2.76 log2 (difference from the parental peptide). chain 1 T6D was tested, and the enrichment was 2.7 log2 (difference from the parental peptide). chain 1 T6R was tested, and the enrichment was -0.801 log2 (difference from the parental peptide). With chain 1 T6K the enrichment was -1.83 log2 (difference from the parental peptide). chain 1 T16P was tested, and the enrichment was 1.42 log2 (difference from the parental peptide). For chain 1 T16H, the enrichment was 0.233 log2 (difference from the parental peptide). chain 1 T16I was tested, and the enrichment was 0.743 log2 (difference from the parental peptide). chain 1 T16A was tested, and the enrichment was 1.43 log2 (difference from the parental peptide).
